# Measurements: patent US6656716 (SUGEN, dated 2003)
# T1: SULU1-coiled-coil2 (GST fusion of human SULU1 amino acids 752-898) (human, UniProt Q5R4F3 752-898 (Pongo abelii entry))
# T1 construct: Bait made as a C-terminal fusion to GST, expressed in E. coli and immobilised for T7 phage display selection; also called Construct 1; SULU1 Coiled-coil2 bait; not shown: glutathione S-transferase (GST) of the pGEX-4T vector
# T1 sequence: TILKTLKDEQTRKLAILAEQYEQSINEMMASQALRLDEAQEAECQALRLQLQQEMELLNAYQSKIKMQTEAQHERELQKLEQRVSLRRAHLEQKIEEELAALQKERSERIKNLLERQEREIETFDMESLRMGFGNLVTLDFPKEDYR
# B1: GEK2 coiled-coil domain fragment (residues 677-820 of SEQ ID NO:26) displayed on T7 phage (other)
# chain: KESMKQKMEEHTQKKQLLDRDFVAKQKEDLELAMKRLTTDNRREICDKERECLMKKQELLRDREAALWEMEEHQLQERHQLVKQQLKDQYFLQRHELLRKHEKEREQMQRYNQRMIEQLKVRQQQEKARLPKIQRSEGKTRMAM
# notes: also called GEK2 CC1; GEK2 cc dom; not shown: T7 phage coat protein of the T7Select1-1b vector
# Biological target: T1, SULU1-coiled-coil2 (GST fusion of human …)
# Assay: T7 phage display, H441 cDNA library, immobilised GST-fusion bait
# Protocol: Aliquots of refreshed libraries (10^10–10^12 pfu) supplemented with PanMix and a cocktail of […] inhibitors (Sigma P-8465) were incubated for 1–2 hrs at room temperature with the immobilized baits. Unbound phage was extensively washed (at least 4 times) with wash buffer.
# Individual plaques were picked into 25 µL of 10 mM EDTA and the phage was disrupted by heating at 70° C. for 10 min. 2 µL of the disrupted phage were added to 50 µL PCR reaction mix. The insert DNA was amplified by 35 rounds of thermal cycling (94° C., 50 sec; 50° C., 1 min; 72° C., 1 min).
binder,measurement,value
B1,binding result,binds
